# Measurements as given in the supplement of paper PMC9112550, “Optimization of the antimicrobial peptide Bac7 by deep mutational scanning” (BMC Biology, 2022).
# Test system: Escherichia coli TOP10
# Experiment: shrunken log2 fold change of peptide-encoding DNA abundance (4.5 h post-induction vs induction); higher = less antimicrobial activity (less host growth inhibition)
# Conditions: time post-induction: 4.5 h; library: site-saturation at positions 5, 18, 19, 20
# 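Note: peptides expressed intracellularly from a pBAD plasmid library in pooled LB shake-flask culture, induced with 0.3% L-arabinose, DNA abundance read by NGS, three biological replicates, DESeq2 with apeglm shrinkage.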
row,Sequence,shrunken log2 fold change
1,RRIRERPPRLPRPRPRPELRPRP,0.0526
2,RRIRARPPRLPRPRPRPQKAPRP,0.0481
3,RRIRSRPPRLPRPRPRPWLSPRP,-0.00679
4,RRIRQRPPRLPRPRPRPKQTPRP,-0.0544
5,RRIRKRPPRLPRPRPRPKTDPRP,0.343
6,RRIRCRPPRLPRPRPRPVDEPRP,2.09
7,RRIRRRPPRLPRPRPRPYGLPRP,-0.0176
8,RRIRLRPPRLPRPRPRPQVQPRP,-0.0263
9,RRIRRRPPRLPRPRPRPGAGPRP,0.475
10,RRIRRRPPRLPRPRPRPEALPRP,0.115
11,RRIRPRPPRLPRPRPRPQISPRP,-0.221
12,RRIRQRPPRLPRPRPRPQTEPRP,-0.128
13,RRIRARPPRLPRPRPRPQFDPRP,0.545
14,RRIRERPPRLPRPRPRPNHEPRP,0.0522
15,RRIRARPPRLPRPRPRPIDCPRP,0.335
16,RRIRHRPPRLPRPRPRPQGDPRP,0.0795
17,RRIRRRPPRLPRPRPRPGQHPRP,-0.0579
18,RRIRCRPPRLPRPRPRPQLQPRP,0.0481
19,RRIRQRPPRLPRPRPRPDEHPRP,2.14
20,RRIRNRPPRLPRPRPRPMRTPRP,0.312
21,RRIRFRPPRLPRPRPRPYCVPRP,-1.23
22,RRIRKRPPRLPRPRPRPFFEPRP,0.428
23,RRIRWRPPRLPRPRPRPGKTPRP,0.0109
24,RRIRPRPPRLPRPRPRPGEQPRP,1.29
25,RRIRGRPPRLPRPRPRPCMKPRP,0.507

row,Sequence,shrunken log2 fold change
1,RRIRERPPRLPRPRPRPLECPRP,-0.498
2,RRIRWRPPRLPRPRPRPGSIPRP,-0.0682
3,RRIRERPPRLPRPRPRPHPPPRP,0.16
4,RRIRGRPPRLPRPRPRPGHQPRP,0.124
5,RRIRARPPRLPRPRPRPEYRPRP,0.0382
6,RRIRLRPPRLPRPRPRPMEEPRP,0.156
7,RRIRGRPPRLPRPRPRPVFFPRP,0.888
8,RRIRCRPPRLPRPRPRPAQNPRP,0.586
9,RRIRPRPPRLPRPRPRPWFHPRP,0.0116
10,RRIRVRPPRLPRPRPRPLSMPRP,-0.0717
11,RRIRVRPPRLPRPRPRPWWHPRP,0.0994
12,RRIRQRPPRLPRPRPRPFVKPRP,-0.234
13,RRIRYRPPRLPRPRPRPNRHPRP,-0.614
14,RRIRCRPPRLPRPRPRPEMIPRP,0.12
15,RRIRVRPPRLPRPRPRPHKIPRP,-0.53
16,RRIRYRPPRLPRPRPRPLNTPRP,-0.234
17,RRIRQRPPRLPRPRPRPDWYPRP,-0.32
18,RRIRDRPPRLPRPRPRPMNTPRP,-0.125
19,RRIRIRPPRLPRPRPRPWWPPRP,0.027
20,RRIRKRPPRLPRPRPRPMSCPRP,0.0384
21,RRIRYRPPRLPRPRPRPGAFPRP,-0.805
22,RRIRERPPRLPRPRPRPMSNPRP,-0.16
23,RRIRSRPPRLPRPRPRPNVRPRP,-0.0771
24,RRIRQRPPRLPRPRPRPWISPRP,-0.0848
25,RRIRKRPPRLPRPRPRPTAWPRP,1.13

row,Sequence,shrunken log2 fold change
1,RRIRTRPPRLPRPRPRPPKTPRP,0.142
2,RRIRQRPPRLPRPRPRPWVWPRP,0.0723
3,RRIRCRPPRLPRPRPRPMDDPRP,-0.194
4,RRIRIRPPRLPRPRPRPMQFPRP,-0.343
5,RRIRGRPPRLPRPRPRPSRAPRP,0.553
6,RRIRARPPRLPRPRPRPPNRPRP,0.499
7,RRIRGRPPRLPRPRPRPNANPRP,0.837
8,RRIRYRPPRLPRPRPRPNMTPRP,-0.00766
9,RRIRCRPPRLPRPRPRPPLDPRP,0.616
10,RRIRKRPPRLPRPRPRPTPNPRP,0.553
11,RRIRSRPPRLPRPRPRPEWIPRP,0.021
12,RRIRDRPPRLPRPRPRPGNEPRP,-0.159
13,RRIRFRPPRLPRPRPRPCAAPRP,0.35
14,RRIRTRPPRLPRPRPRPKDMPRP,-0.0311
15,RRIRCRPPRLPRPRPRPHYGPRP,-0.189
16,RRIRIRPPRLPRPRPRPHPQPRP,-0.0725
17,RRIRCRPPRLPRPRPRPDGIPRP,-0.0101
18,RRIRMRPPRLPRPRPRPIVVPRP,0.0203
19,RRIRIRPPRLPRPRPRPAWNPRP,0.146
20,RRIRSRPPRLPRPRPRPFMMPRP,-0.643
21,RRIRPRPPRLPRPRPRPEFHPRP,-0.0272
22,RRIRLRPPRLPRPRPRPSCFPRP,0.172
23,RRIRFRPPRLPRPRPRPHDTPRP,-0.535
24,RRIRTRPPRLPRPRPRPPWYPRP,-0.166
25,RRIRQRPPRLPRPRPRPVWKPRP,0.121

row,Sequence,shrunken log2 fold change
1,RRIRPRPPRLPRPRPRPYATPRP,-0.446
2,RRIRTRPPRLPRPRPRPRQLPRP,0.187
3,RRIRDRPPRLPRPRPRPECWPRP,1.84
4,RRIRMRPPRLPRPRPRPVCIPRP,-0.0455
5,RRIRFRPPRLPRPRPRPKKWPRP,0.187
6,RRIRPRPPRLPRPRPRPAWYPRP,0.0306
7,RRIRERPPRLPRPRPRPFRMPRP,-0.3
8,RRIRHRPPRLPRPRPRPHTHPRP,-0.725
9,RRIRRRPPRLPRPRPRPRYNPRP,-0.132
10,RRIRVRPPRLPRPRPRPWFYPRP,-0.373
11,RRIRRRPPRLPRPRPRPLTFPRP,2.56
12,RRIRRRPPRLPRPRPRPEMTPRP,0.638
13,RRIRMRPPRLPRPRPRPERWPRP,1.5
14,RRIRHRPPRLPRPRPRPRGQPRP,-0.0142
15,RRIRDRPPRLPRPRPRPVQYPRP,-0.0992
16,RRIRIRPPRLPRPRPRPPYPPRP,-0.188
17,RRIRERPPRLPRPRPRPCTSPRP,-0.0275
18,RRIRQRPPRLPRPRPRPCLNPRP,-0.632
19,RRIRLRPPRLPRPRPRPYIPPRP,-0.669
20,RRIRLRPPRLPRPRPRPWFWPRP,-0.0455
21,RRIRLRPPRLPRPRPRPDCMPRP,-0.0708
22,RRIRHRPPRLPRPRPRPLKPPRP,0.18
23,RRIRARPPRLPRPRPRPAKKPRP,-0.0777
24,RRIRQRPPRLPRPRPRPFKNPRP,0.0784
25,RRIRRRPPRLPRPRPRPLLKPRP,0.415

row,Sequence,shrunken log2 fold change
1,RRIRCRPPRLPRPRPRPCALPRP,-0.213
2,RRIRIRPPRLPRPRPRPLYYPRP,-0.856
3,RRIRYRPPRLPRPRPRPPCEPRP,-0.468
4,RRIRARPPRLPRPRPRPRFKPRP,0.122
5,RRIRLRPPRLPRPRPRPERGPRP,0.538
6,RRIRSRPPRLPRPRPRPRSDPRP,0.223
7,RRIRRRPPRLPRPRPRPFWSPRP,0.18
8,RRIRARPPRLPRPRPRPTVDPRP,0.732
9,RRIRHRPPRLPRPRPRPLITPRP,-0.324
10,RRIRLRPPRLPRPRPRPLIRPRP,-0.547
11,RRIRERPPRLPRPRPRPNASPRP,-0.0996
12,RRIRHRPPRLPRPRPRPAKVPRP,0.00133
13,RRIRIRPPRLPRPRPRPFTKPRP,-0.173
14,RRIRARPPRLPRPRPRPQCSPRP,0.111
15,RRIRWRPPRLPRPRPRPRCCPRP,0.448
16,RRIRRRPPRLPRPRPRPNNCPRP,0.129
17,RRIRFRPPRLPRPRPRPPFHPRP,-0.231
18,RRIRARPPRLPRPRPRPQLPPRP,0.327
19,RRIRWRPPRLPRPRPRPQPIPRP,0.813
20,RRIRFRPPRLPRPRPRPWVMPRP,-0.258
21,RRIRVRPPRLPRPRPRPVICPRP,-0.0928
22,RRIRSRPPRLPRPRPRPWIEPRP,-0.0567
23,RRIRCRPPRLPRPRPRPMDIPRP,0.00412
24,RRIRHRPPRLPRPRPRPGENPRP,-0.00146
25,RRIRRRPPRLPRPRPRPPDVPRP,0.474

row,Sequence,shrunken log2 fold change
1,RRIRWRPPRLPRPRPRPWVVPRP,1.61
2,RRIRCRPPRLPRPRPRPPSEPRP,0.102
3,RRIRGRPPRLPRPRPRPQPMPRP,0.412
4,RRIRWRPPRLPRPRPRPSLDPRP,-0.00135
5,RRIRRRPPRLPRPRPRPSDCPRP,-0.0825
6,RRIRCRPPRLPRPRPRPNRRPRP,-0.0599
7,RRIRMRPPRLPRPRPRPPFTPRP,0.309
8,RRIRTRPPRLPRPRPRPDGIPRP,-0.00822
9,RRIRGRPPRLPRPRPRPRMDPRP,0.59
10,RRIRGRPPRLPRPRPRPHYVPRP,-0.0585
11,RRIRFRPPRLPRPRPRPWYMPRP,-0.991
12,RRIRARPPRLPRPRPRPKVWPRP,0.766
13,RRIRDRPPRLPRPRPRPHKRPRP,-0.0521
14,RRIRVRPPRLPRPRPRPKLPPRP,-0.266
15,RRIRLRPPRLPRPRPRPGDRPRP,-0.0244
16,RRIRQRPPRLPRPRPRPEKFPRP,-0.029
17,RRIRVRPPRLPRPRPRPMHVPRP,0.0592
18,RRIRNRPPRLPRPRPRPQWWPRP,0.034
19,RRIRMRPPRLPRPRPRPMRIPRP,0.355
20,RRIRYRPPRLPRPRPRPCPCPRP,0.0185
21,RRIRNRPPRLPRPRPRPSFVPRP,-0.266
22,RRIRSRPPRLPRPRPRPCCPPRP,-0.0457
23,RRIRTRPPRLPRPRPRPTSRPRP,0.141
24,RRIRMRPPRLPRPRPRPEITPRP,3.07
25,RRIRDRPPRLPRPRPRPMAMPRP,0.25
